Here are results for 66 substances from the array DNA melting data of Ke et al..

The data set can be described thus: melting temperature; melt of duplexes. Particulars: sodium 0.0675 M; strand 1 µM.
What is called Tm is the temperature at the midpoint of the melting transition. As for “CGACGTGCCCCATGTGCTG+CAGCACATGCCGCACGTCG ((((((((..(((((((((+)))))))))..))))))))”, the Tm turned out to be 50.3 °C.

Regarding “CGACGTGCCATATGTGCTG+CAGCACATGAGGCACGTCG (((((((((..((((((((+))))))))..)))))))))”, the Tm worked out at 56.2 °C.

As to “CGACGTGCTGGATGTGCTG+CAGCACATGTCGCACGTCG ((((((((...((((((((+))))))))...))))))))”, the melting temperature (Tm) amounted to 50.3 °C.

On to “CGACGTGCGTCATGTGCTG+CAGCACATTAAGCACGTCG ((((((((.(.((((((((+)))))))).).))))))))”, for which the midpoint of thermal melting (Tm) was found to be 53.3 °C.

“CGACGTGCATTATGTGCTG+CAGCACATTAAGCACGTCG ((((((((.(.((((((((+)))))))).).))))))))”: the melting temperature (Tm) came out at 50.3 °C.

Take “CGACGTGCCCTATGTGCTG+CAGCACATCAGGCACGTCG (((((((((..((((((((+))))))))..)))))))))”: the Tm worked out at 53.8 °C.

On to “CGACGTGCGTTATGTGCTG+CAGCACATAACGCACGTCG (((((((((((((((((((+)))))))))))))))))))”, for which the midpoint of thermal melting (Tm) came to 63.6 °C.

As to “CGACGTGCGGAATGTGCTG+CAGCACATCCGGCACGTCG ((((((((.(.((((((((+)))))))).).))))))))”, the melting temperature (Tm) amounted to 55.7 °C.

As for “CGACGTGCAGTATGTGCTG+CAGCACATTGAGCACGTCG ((((((((...((((((((+))))))))...))))))))”, the midpoint of thermal melting (Tm) is 49.1 °C.

With “CGACGTGCCATATGTGCTG+CAGCACATCACGCACGTCG ((((((((...((((((((+))))))))...))))))))”, the midpoint of thermal melting (Tm) was 47.6 °C.

Consider “CGACGTGCTCTATGTGCTG+CAGCACATGAAGCACGTCG (((((((((..((((((((+))))))))..)))))))))”, for which the Tm was 53 °C.

Consider “CGACGTGCTCAATGTGCTG+CAGCACATTGTGCACGTCG ((((((((.((((((((((+)))))))))).))))))))”, for which the Tm is 56.7 °C.

In the case of “CGACGTGCGTTATGTGCTG+CAGCACATTTGGCACGTCG ((((((((...((((((((+))))))))...))))))))”, the melting temperature (Tm) came to 49.4 °C.

Turning to “CGACGTGCGCCATGTGCTG+CAGCACATATTGCACGTCG ((((((((...((((((((+))))))))...))))))))”, the melting temperature (Tm) worked out at 47.3 °C.

In the case of “CGACGTGCCGGATGTGCTG+CAGCACATTCTGCACGTCG ((((((((.(.((((((((+)))))))).).))))))))”, the melting temperature (Tm) was 52.3 °C.

Turning to “CGACGTGCAAGATGTGCTG+CAGCACATTCTGCACGTCG (((((((((..((((((((+))))))))..)))))))))”, the Tm was 53.2 °C.

For the substance “CGACGTGCAGTATGTGCTG+CAGCACATGAGGCACGTCG ((((((((...((((((((+))))))))...))))))))”, the midpoint of thermal melting (Tm) came to 51.4 °C.

For the substance “CGACGTGCGGCATGTGCTG+CAGCACATTTAGCACGTCG ((((((((...((((((((+))))))))...))))))))”, the Tm is 52 °C.

In the case of “CGACGTGCGCCATGTGCTG+CAGCACATAGAGCACGTCG ((((((((.(.((((((((+)))))))).).))))))))”, the midpoint of thermal melting (Tm) is 54.4 °C.

Take “CGACGTGCGGTATGTGCTG+CAGCACATTCCGCACGTCG ((((((((((.((((((((+)))))))).))))))))))”: the Tm came out at 60 °C.

On to “CGACGTGCTGGATGTGCTG+CAGCACATAAAGCACGTCG (((((((((..((((((((+))))))))..)))))))))”, for which the Tm came out at 55.3 °C.

“CGACGTGCAGAATGTGCTG+CAGCACATTAGGCACGTCG ((((((((..(((((((((+)))))))))..))))))))”: the Tm is 54.1 °C.

“CGACGTGCTACATGTGCTG+CAGCACATCCTGCACGTCG ((((((((...((((((((+))))))))...))))))))”: the midpoint of thermal melting (Tm) amounted to 48.3 °C.

As for “CGACGTGCTCAATGTGCTG+CAGCACATACAGCACGTCG (((((((((..((((((((+))))))))..)))))))))”, the midpoint of thermal melting (Tm) was 50.7 °C.

In the case of “CGACGTGCCCGATGTGCTG+CAGCACATAAAGCACGTCG ((((((((...((((((((+))))))))...))))))))”, the Tm worked out at 49.8 °C.

On to “CGACGTGCCAAATGTGCTG+CAGCACATTACGCACGTCG ((((((((..(((((((((+)))))))))..))))))))”, for which the Tm amounted to 50.5 °C.

Take “CGACGTGCTAAATGTGCTG+CAGCACATTGTGCACGTCG ((((((((..(((((((((+)))))))))..))))))))”: the Tm came to 50.7 °C.

On to “CGACGTGCACCATGTGCTG+CAGCACATGGCGCACGTCG ((((((((.((((((((((+)))))))))).))))))))”, for which the Tm was determined as 59.2 °C.

Consider “CGACGTGCCCAATGTGCTG+CAGCACATCTAGCACGTCG ((((((((...((((((((+))))))))...))))))))”, for which the Tm came to 48.8 °C.

“CGACGTGCTCCATGTGCTG+CAGCACATAACGCACGTCG ((((((((...((((((((+))))))))...))))))))”: the midpoint of thermal melting (Tm) came to 47 °C.

As to “CGACGTGCCTAATGTGCTG+CAGCACATCTTGCACGTCG ((((((((...((((((((+))))))))...))))))))”, the Tm came out at 48 °C.

“CGACGTGCAAAATGTGCTG+CAGCACATGTCGCACGTCG ((((((((.(.((((((((+)))))))).).))))))))”: the Tm worked out at 53.3 °C.

Regarding “CGACGTGCCTTATGTGCTG+CAGCACATCATGCACGTCG ((((((((.(.((((((((+)))))))).).))))))))”, the Tm worked out at 47.7 °C.

For the substance “CGACGTGCTCGATGTGCTG+CAGCACATGCAGCACGTCG (((((((((..((((((((+))))))))..)))))))))”, the melting temperature (Tm) was found to be 52.1 °C.

In the case of “CGACGTGCGTAATGTGCTG+CAGCACATACGGCACGTCG ((((((((...((((((((+))))))))...))))))))”, the Tm came out at 52.6 °C.

As for “CGACGTGCGAAATGTGCTG+CAGCACATCAGGCACGTCG ((((((((...((((((((+))))))))...))))))))”, the Tm amounted to 49.7 °C.

For “CGACGTGCAAAATGTGCTG+CAGCACATTATGCACGTCG (((((((((.(((((((((+))))))))).)))))))))”, the Tm was found to be 55.1 °C.

For the substance “CGACGTGCCGCATGTGCTG+CAGCACATGCCGCACGTCG ((((((((.((((((((((+)))))))))).))))))))”, the Tm amounted to 58.9 °C.

In the case of “CGACGTGCTTAATGTGCTG+CAGCACATTTTGCACGTCG ((((((((..(((((((((+)))))))))..))))))))”, the Tm came out at 52.5 °C.

Take “CGACGTGCAATATGTGCTG+CAGCACATCGCGCACGTCG ((((((((...((((((((+))))))))...))))))))”: the melting temperature (Tm) came out at 47.4 °C.

Regarding “CGACGTGCAATATGTGCTG+CAGCACATTACGCACGTCG ((((((((...((((((((+))))))))...))))))))”, the melting temperature (Tm) stood at 49.7 °C.

In the case of “CGACGTGCGTAATGTGCTG+CAGCACATCAGGCACGTCG ((((((((.(.((((((((+)))))))).).))))))))”, the Tm amounted to 51.5 °C.

Consider “CGACGTGCCTGATGTGCTG+CAGCACATCCTGCACGTCG ((((((((..(((((((((+)))))))))..))))))))”, for which the Tm amounted to 53.1 °C.

With “CGACGTGCATCATGTGCTG+CAGCACATGAGGCACGTCG ((((((((.((((((((((+)))))))))).))))))))”, the Tm came out at 60.8 °C.

With “CGACGTGCGAGATGTGCTG+CAGCACATTGGGCACGTCG ((((((((...((((((((+))))))))...))))))))”, the Tm was 51.9 °C.

Turning to “CGACGTGCGCAATGTGCTG+CAGCACATTCTGCACGTCG ((((((((..(((((((((+)))))))))..))))))))”, the Tm was found to be 52.3 °C.

As for “CGACGTGCGCCATGTGCTG+CAGCACATTGAGCACGTCG ((((((((.(.((((((((+)))))))).).))))))))”, the Tm was found to be 52.6 °C.

Regarding “CGACGTGCCAGATGTGCTG+CAGCACATGTCGCACGTCG ((((((((.(.((((((((+)))))))).).))))))))”, the Tm came out at 49.7 °C.

With “CGACGTGCTCTATGTGCTG+CAGCACATAGTGCACGTCG ((((((((.((((((((((+)))))))))).))))))))”, the midpoint of thermal melting (Tm) turned out to be 54.1 °C.

As to “CGACGTGCGTAATGTGCTG+CAGCACATGGCGCACGTCG (((((((((..((((((((+))))))))..)))))))))”, the melting temperature (Tm) is 57.2 °C.

Take “CGACGTGCTTGATGTGCTG+CAGCACATTATGCACGTCG ((((((((.(.((((((((+)))))))).).))))))))”: the Tm was 51.9 °C.

Consider “CGACGTGCCGCATGTGCTG+CAGCACATTCGGCACGTCG ((((((((((.((((((((+)))))))).))))))))))”, for which the Tm turned out to be 59.1 °C.

Regarding “CGACGTGCGCAATGTGCTG+CAGCACATCGGGCACGTCG ((((((((.(.((((((((+)))))))).).))))))))”, the midpoint of thermal melting (Tm) was 52.7 °C.

With “CGACGTGCCCTATGTGCTG+CAGCACATATTGCACGTCG ((((((((..(((((((((+)))))))))..))))))))”, the Tm was found to be 48.9 °C.

As for “CGACGTGCGGTATGTGCTG+CAGCACATGGGGCACGTCG ((((((((...((((((((+))))))))...))))))))”, the Tm was found to be 51.7 °C.

For “CGACGTGCCTGATGTGCTG+CAGCACATCGTGCACGTCG ((((((((..(((((((((+)))))))))..))))))))”, the midpoint of thermal melting (Tm) is 51.4 °C.

As to “CGACGTGCTCGATGTGCTG+CAGCACATTAGGCACGTCG ((((((((...((((((((+))))))))...))))))))”, the melting temperature (Tm) is 50.9 °C.

Consider “CGACGTGCCAGATGTGCTG+CAGCACATAATGCACGTCG ((((((((...((((((((+))))))))...))))))))”, for which the Tm was determined as 48.5 °C.

On to “CGACGTGCCCGATGTGCTG+CAGCACATCAAGCACGTCG ((((((((..(((((((((+)))))))))..))))))))”, for which the Tm turned out to be 52.8 °C.

As to “CGACGTGCCGTATGTGCTG+CAGCACATCTTGCACGTCG ((((((((...((((((((+))))))))...))))))))”, the Tm is 48.5 °C.

As to “CGACGTGCATAATGTGCTG+CAGCACATGTCGCACGTCG ((((((((...((((((((+))))))))...))))))))”, the midpoint of thermal melting (Tm) worked out at 52.2 °C.

Regarding “CGACGTGCAACATGTGCTG+CAGCACATGCGGCACGTCG ((((((((..(((((((((+)))))))))..))))))))”, the melting temperature (Tm) came out at 53.5 °C.

Consider “CGACGTGCCACATGTGCTG+CAGCACATGGGGCACGTCG (((((((((.(((((((((+))))))))).)))))))))”, for which the Tm stood at 63.6 °C.

On to “CGACGTGCACTATGTGCTG+CAGCACATCTGGCACGTCG ((((((((...((((((((+))))))))...))))))))”, for which the Tm was 44.2 °C.

Take “CGACGTGCCATATGTGCTG+CAGCACATTTTGCACGTCG ((((((((.(.((((((((+)))))))).).))))))))”: the midpoint of thermal melting (Tm) stood at 49.6 °C.

For “CGACGTGCCAAATGTGCTG+CAGCACATAAAGCACGTCG ((((((((...((((((((+))))))))...))))))))”, the Tm worked out at 49.9 °C.
